In patent US20250388893A1 (HUAZHONG AGRICULTURAL UNIVERSITY, published 2025):

Target: T1, GAL4 DNA binding domain (UniProt P04386 1-147)
T1 construct: Residues read through from the cloning site are not described; also called BD
Assay: yeast two-hybrid, growth on SD/-Trp/-Leu/-Ade/-His; empty vector

T1 sequence (P04386 1-147 limits assumed): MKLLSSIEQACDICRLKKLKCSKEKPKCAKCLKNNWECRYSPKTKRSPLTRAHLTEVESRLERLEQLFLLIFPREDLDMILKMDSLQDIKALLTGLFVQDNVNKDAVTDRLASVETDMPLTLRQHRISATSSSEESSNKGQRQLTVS

B1: GAL4 activation domain (other, UniProt P04386 768-881, looked up)
chain: ANFNQSGNIADSSLSFTFTNSSNGPNLITTQTNSQALSQPIASSNVHDNFMNNEITASKIDDGNNSKPLSPGWTDQTAYNAFGITTGMFNTTTMDDVYNYLFDDEDTPPNPKKE
notes: Residues read through from the cloning site are not described; also called AD
- binding result: no binding
